The values below come from publication PMC10347550, “Cyclic Ruthenium-Peptide Conjugates as Integrin-Targeting Phototherapeutic Prodrugs for the Treatment of Brain Tumors” (Journal of the American Chemical Society, 2023).

pEC50: −log10 of the molar value. Where two headings read alike, the source gives them in different places.

The term pEC50 denotes the negative decadic logarithm of the EC50, by convention in mol/L.

Data set [1] concerns U87MG cells. Description: Cellular Ru uptake by ICP-MS. It is filed as cell-based, human. The settings on record: dark, 6 h, triplicate wells, ± SEM. The procedure: (§1) U87MG cells (6000), PC-3 cells (5000), and MCF7 cells (8000) were seeded in 96-well plates, each well containing 100 μL of Opti-MEM. After 24 h, 12.5 μM drugs dissolved in Opti-MEM were added to each well and the plates were incubated in a normoxic or hypoxic incubator for 6 h. After that, the drug-containing medium was removed from each well, which was washed with PBS buffer once. Then, cells were stained by Nuclear Blue (Invitrogen, R37605) for 30 min to stain all nuclei (2 drops/mL medium). After this, the dye was thereafter removed and replaced with fresh medium. The entire well was imaged with 10× objective magnification and 7 × 6 montage using epifluorescence on a Nikon TiE2000 widefield microscope with a perfect focus system and automated xy-stage. The cell number of every well was analyzed by counting the nuclei using Image-Pro Analyzer 7.0. Thereafter, the medium was removed and the cells were digested by adding 100 μL of 65% HNO3 for 30 min at room temperature. The cell lysates were transferred into a 96-deep well plate (Eppendorf, E951033502), followed by the addition of 0.9 mL of MilliQ water into each well, and the plate was then mixed well with a 1000 μL Eppendorf pipette.
(§2) The ruthenium concentration was measured in each sample by ICP-MS (NexION 2000, PerkinElmer), providing the metal content in each well in ppb. Combining the cell numbers and Ru uptake, averaging over technical triplicates, the ruthenium uptake values were finally expressed in μg Ru/million cells.

Data set [2] relates to MCF7 cells. Description: Cellular Ru uptake by ICP-MS. In kind it is cell-based, human. The conditions noted are these: dark, 6 h, triplicate wells, ± SEM. On the procedure:
as §1, §2

Data set [3] concerns PC-3 cells. Description: Cellular Ru uptake by ICP-MS. The settings on record: dark, 6 h, triplicate wells, ± SEM. In kind it is cell-based, human. On the procedure:
as §1, §2

Data set [4] concerns U87MG cells. In words: Intracellular ROS generation, CellROX Deep Red, flow cytometry. The conditions noted are these: 15 µM, 24 h. A general note: A flow cytometer gives signals particle by particle.
Protocol: The generation of ROS (reactive oxygen species) in U87MG cells was measured using a ROS deep red fluorescence indicator (Abcam, ab186029). U87MG (1 × 10^5, 1 mL) were seeded into 12-well plates and incubated for 24 h in the dark under normoxia. The cells were then treated with 15 μM complexes with Opti-MEM, Λ-[1]Cl2, Δ-[1]Cl2, cisplatin, or Rose Bengal. There are two groups for each drug (dark + light). After 24 h of incubation under normoxia, the plate was washed with cold PBS once, and cells were trypsinized, harvested, and then resuspended in 150 μL of PBS. The cell suspension from the centrifuge tubes was transferred to 96-round-bottom well plates (Thermo Scientific, 268200), and the light group was irradiated for 20 min with 520 nm light (dose = 13.1 J/cm^2). After which, the Cellular ROS Deep Red dye (abcam, ab186029) was added with 1000× dilution, and cells were further stained for 1 h. Untreated cells were maintained as negative controls, whereas a 250 μM tBHP solution in Opti-MEM complete was administered as a positive control for ROS. The levels of intracellular ROS were then determined using the CytoFLEX flow cytometer. Forward versus side scatter (FSC vs SSC) gating was used to select the population of interest and avoid cell debris. A forward scatter height (FSC-H) vs forward scatter area (FSC-A) gating was used for doublet exclusion. Fluorescence measurements were acquired with the APC-A (638 nm excitation, 660/10 nm emission) channel given the known excitation/emission wavelengths of the ROS Deep Red dye (650/675 nm, respectively). All flow cytometry data were processed using FlowLogic 8.5 software.
Data set [5] in a line: Octanol-water partition coefficient (log P). It is filed as physicochemical. The settings on record: shake-flask, octanol-saturated water / water-saturated octanol, shaken 24 h in the dark, room temperature; Ru in water phase by ICP-MS; ± SD from 4 concentration points. On the procedure: Each complex was first dissolved in octanol-saturated water (0.5 mM, 500 μL) and centrifuged (2000 rpm, 5 min) to isolate the undissolved solid. 450 μL of the supernatant was taken out as the stock solution; after that, 5, 10, 50, 100, and 150 μL of solution were added to the 15 mL tube, and more octanol-saturated water was added to adjust the final volume to 1 mL. 1 mL of water-saturated octanol was added further, and the tubes were mildly shaken (Gesellschaft für Labortechnik mbH, type3016) for 24 h under dark conditions. After that, the solutions were centrifuged for 5 min at 2000 rpm at room temperature, and 0.5 mL of the water phase (below phase) was moved to a 15 mL centrifuge tube by an Eppendorf pipette. Then, 0.1 mL of 65% HNO3 was added into the tube using an organic pipette gun, and each solution was shaken for 1 h. 9.9 mL of MilliQ water was added into each tube, making a total volume of 10 mL. To detect the Ru content of the stock solution, 10 μL of each stock solution was mixed with 0.490 mL of 65% HNO3, and the mixture was shaken for 1 h. Then, […] of MilliQ water was added to the tube, making a total volume of 10 mL. ICP-MS measurement was performed using a NexION 2000 from PerkinElmer. The ruthenium content in each well was obtained in ppb. The partition coefficients (log P) were calculated using the following eq 3 [drawing 3] 3
where [complex]total is the concentration of the complex in the control sample (where no water-saturated octanol was added) and [complex]water is the concentration of the complex in the aqueous layer.

Data set [6] concerns U87MG spheroids. Description: 3D tumor spheroid viability assay, CellTiter-Glo 3D. The settings on record: U87MG 3D spheroids; for pEC50: CellTiter-Glo 3D at 96 h, n = 3. It is filed as cell-based, human. The procedure:
The spheroids were incubated further under normoxia. […] After 30 min of shaking on an IKA Vibrax shaker at 500 rpm at room temperature, the luminescence in each well was measured with a Tecan microplate reader. […] All experiments were conducted in three biologically independent replicates.
(In general: Cellular ATP, detected with luciferase, serves as a proxy for viable cell number.)

The test system of data set [7] is U87MG cells. Description: Apopxin/Nuclear Green DCS1 double-staining cell death mode study. It is filed as cell-based, human. The settings on record: 20 μM, 24 h incubation, 1 h after green light (13.1 J/cm^2), flow cytometry. On the procedure:
After 24 h of incubation, one plate labeled light was irradiated for 20 min using 520 nm green light (13.1 J/cm^2), and then both plates were allowed to incubate further for 1, 2, 6, or 24 h in a normoxia incubator. After incubation, the cells were trypsinized, collected, and washed with cold PBS twice. […] Cells after staining were detected by flow cytometry (CytoFLEX flow cytometer) immediately. Control groups with only assay buffer, only buffer and Apopxin Deep Red Indicator, only buffer and Nuclear Green DCS1, and all three were included to be used for gating during data analysis. Parameters APC (638 nm excitation, 660/10 nm emission) and FITC (488 nm excitation, 525/40 nm emission) were used considering their similar excitation/emission wavelength with two detectors Apopxin Deep Red Indicator, Ex/Em = 630/660 nm (apoptosis), and Nuclear Green DCS1, Ex/Em = 490/520 nm (necrosis).

The mark [8] stands for this setting: 21% O2, dark, 24 h treatment, read-out: EC50,dark.
Setting [9] is: 21% O2, green light after 24 h treatment, read-out: EC50,light.

For the substance “[Ru(Ph2phen)2(κ^S,κ^N-(Ac-MRGDH-NH2))]Cl2 (sidechain bridge or staple) [Λ-[1]Cl2] [cyclic ruthenium-peptide conjugate, Ac-MRGDH-NH2 coordinated via Met S and His N]”, the Ru accumulation came to 0.84 ± 0.01 µg Ru/million cells in data set [1] (hypoxia 1% O2, 12.5 µM, listed as L-[1]Cl2); 0.74 ± 0.01 µg Ru/million cells in data set [1] (normoxia 21% O2, 12.5 µM); 0.31 ± 0.01 µg Ru/million cells in data set [2] (MCF7, hypoxia 1% O2, 12.5 µM); 0.25 ± 0.01 µg Ru/million cells in data set [2] (MCF7, normoxia 21% O2, 12.5 µM, listed as L-[1]Cl2); 0.68 ± 0.01 µg Ru/million cells in data set [3] (PC-3, hypoxia 1% O2, 12.5 µM, listed as L-[1]Cl2); 0.55 ± 0.03 µg Ru/million cells in data set [3] (PC-3, normoxia 21% O2, 12.5 µM, listed as L-[1]Cl2). Besides, in data set [4], the “Ratio of L/D (light/dark ROS ratio)” value came out at 7.03. For the same substance, the “log P (octanol-water partition coefficient)” value in data set [5] is reported as −0.03 ± 0.02. Besides, the “PI (EC50,dark/EC50,light)” value in data set [6] (21% O2) is recorded as 4.9. Besides, the pEC50 in data set [6] (setting [8]) is 4.43; in data set [6] (setting [9]), 5.12. In data set [7], the cell death mode entry is given as “died mainly via necrosis”.

Consider “[Ru(Ph2phen)2(κ^S,κ^N-(Ac-MRGDH-NH2))]Cl2 (sidechain bridge or staple) [Δ-[1]Cl2] [cyclic ruthenium-peptide conjugate, Ac-MRGDH-NH2 coordinated via Met S and His N]”, for which the Ru accumulation stood at 0.78 ± 0.01 µg Ru/million cells in data set [1] (hypoxia 1% O2, 12.5 µM); 0.73 ± 0.01 µg Ru/million cells in data set [1] (normoxia 21% O2, 12.5 µM); 0.31 ± 0.01 µg Ru/million cells in data set [2] (MCF7, hypoxia 1% O2, 12.5 µM); 0.21 ± 0.01 µg Ru/million cells in data set [2] (MCF7, normoxia 21% O2, 12.5 µM); 0.63 ± 0.02 µg Ru/million cells in data set [3] (PC-3, hypoxia 1% O2, 12.5 µM); 0.51 ± 0.01 µg Ru/million cells in data set [3] (PC-3, normoxia 21% O2, 12.5 µM). For the same substance, the “Ratio of L/D (light/dark ROS ratio)” value in data set [4] stood at 8.24. Moreover, the “log P (octanol-water partition coefficient)” value in data set [5] came to 0.00 ± 0.02. Also, the “PI (EC50,dark/EC50,light)” value in data set [6] (21% O2) came out at 4.2. For the same substance, the negative-log EC50 (pEC50) is 4.34 in data set [6] (setting [8]) and 4.96 in data set [6] (setting [9]). Besides, the cell death mode result in data set [7] is “died mainly via necrosis”.
